Tested on: MS2 coat protein
Experiment: apparent KD of MS2 coat protein; designed switch direction (-1 OFF switch, 1 ON switch): -1; higher = weaker reporter binding
Outline: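 Stalled E. coli RNA polymerase transcribed designed RNA switches on Illumina chips, which were then titrated with SNAP-549-labelled MS2 coat protein, doubling from 0.7 or 1.5 nM to 3 µM. Steps lasted from 0.8–1.5 h at the lowest concentration to 10–20 min at the highest. The apparent KD is each design's median over clusters of curve-fitted normalised fluorescence.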

[1] = input ligand: microRNA oligo, concentration not stated
[2] = Eterna round: R95, input ligand: FMN 200 uM
[3] = Eterna round: R95, input ligand: microRNA oligo, concentration not stated
[4] = Eterna round: R95, input ligand: none

Sequence: AACAUGUGAGGAUAUUAUCACAAAGGCGUAGAAAUACGCGAUAAGAAGGCACAUGAGGAUCACCCAUGUUCCGA [EX4 A.24] (Eterna round: R97, puzzle: Exclusion 4)
- apparent KD of MS2 coat protein (input ligand: FMN 200 uM): 66.8 nM
- apparent KD of MS2 coat protein (input ligand: none): 17.5 nM

Sequence: AACAUUCCAGAAAGGAAUGACAUGAGGAUCACCCAUGUAGGGAUCUAUGCUAAGUUGCUCGUCGCCGCUCCACAAAG [Eternabot (Original) Solution 5] (Eterna round: R97, puzzle: Sensor, turn-off variant 1)
- apparent KD of MS2 coat protein (input ligand: FMN 200 uM): 431 nM
- apparent KD of MS2 coat protein (input ligand: none): 362 nM

Sequence: AACCUACAUGAGGAUCACCCAUGUGAGGAUAUAUUGUUAUUUAUAUUAUUUUUUAGAGGUAGAAGGCGCGUGAU [JR_Exc1_Sub020] (Eterna round: R97, puzzle: Exclusion 1)
- apparent KD of MS2 coat protein (input ligand: FMN 200 uM): 15.9 nM
- apparent KD of MS2 coat protein (input ligand: none): 17.3 nM

Sequence: AACCUGAGGCAAAGCUUUAGGCUUACAUGAGGAUCACCCAUGUAGGAUAUGGUAGGCAAAGCUUACCAGAAGGACAUGGAAAUU [Mat - Exclusion NG 3 - Mod of JL - D24] (Eterna round: R96, puzzle: Exclusion NG 3)
- apparent KD of MS2 coat protein (input ligand: FMN 200 uM): 611 nM
- apparent KD of MS2 coat protein [1]: 127 nM
- apparent KD of MS2 coat protein (input ligand: none): 130 nM

Sequence: AACCUGAGGCAAAGCUUUAGGUGUACAUGAGGAUCACCCAUGUAGGAUAUGGUAGGCAAAGCUUACCAGAAGGACAUAAUGAUG [Mat - Exclusion NG 3 - Mod of JL - D47] (Eterna round: R96, puzzle: Exclusion NG 3)
- apparent KD of MS2 coat protein (input ligand: FMN 200 uM): 100 nM
- apparent KD of MS2 coat protein [1]: 45.1 nM
- apparent KD of MS2 coat protein (input ligand: none): 83.7 nM

Sequence: AACUUCUGAGGAUAUACAUAGAUUUACAUGAGGAUCACCCAUGUUCCUCUAUGUAUAAAUGUAGAAGGCAGAAGAU [Mat - Exclusion 5 - JL Mod - D62] (Eterna round: R97, puzzle: Exclusion 5)
- apparent KD of MS2 coat protein (input ligand: FMN 200 uM): 129 nM
- apparent KD of MS2 coat protein (input ligand: none): 18.4 nM

Sequence: AACUUCUGAGGAUAUACUUAGAUUUACAUGAGGAUCACCCAUGUUCCUCUUUGUAUAAAUGUAGAAGGCAGAAGAA [JL-ex5-4.38 Malcolm mod] (Eterna round: R97, puzzle: Exclusion 5)
- apparent KD of MS2 coat protein (input ligand: FMN 200 uM): 381 nM
- apparent KD of MS2 coat protein (input ligand: none): 45.3 nM

Sequence: AAGAAACAUGAGGAUCACCCAUGUGAGGAUAUAGAAAGAAAGAAAAGAAAAGAAAGAACUAGAAGGCACAAAGA [JR_Exclu1_Sub030] (puzzle: Exclusion 1)
- apparent KD of MS2 coat protein [2]: 26.2 nM
- apparent KD of MS2 coat protein [3]: 26.4 nM
- apparent KD of MS2 coat protein [4]: 30.8 nM

Sequence: AAGAAACAUGAGGAUCACCCAUGUGAGGAUAUGAAAAAGAAAAUAAAAUAAAUAAGAAUCAGAAGGCACAAAGG [Mat - Mod of Hog D5] (puzzle: Exclusion 1)
- apparent KD of MS2 coat protein [2]: 40.6 nM
- apparent KD of MS2 coat protein [3]: 45.5 nM
- apparent KD of MS2 coat protein [4]: 40.2 nM

Sequence: AAGAAACAUGAGGAUCACCCAUGUGAGGAUAUGAAGAAGAAAAGAAAAGAAAGAAGAAUCAGAAGGCACAAAGG [salish99-ex1_r3_046] (puzzle: Exclusion 1)
- apparent KD of MS2 coat protein [2]: 67.1 nM
- apparent KD of MS2 coat protein [3]: 25.8 nM
- apparent KD of MS2 coat protein [4]: 48.4 nM

Sequence: AAGAAACAUGAGGAUCACCCAUGUGAGGAUAUGACAAAGAAAAGAAAAGAAAGAAGAGUCAGAAGGCACAAAGG [salish99-ex1_r3_038] (puzzle: Exclusion 1)
- apparent KD of MS2 coat protein [2]: 137 nM
- apparent KD of MS2 coat protein [3]: 53.1 nM
- apparent KD of MS2 coat protein [4]: 57.7 nM

Sequence: AAGAAACAUGAGGAUCACCCAUGUGAGGAUAUGAUAAAGAAAAGAAAAGAAAGAAGACUCAGAAGGCACAAAGG [salish99-ex1_r3_041] (puzzle: Exclusion 1)
- apparent KD of MS2 coat protein [2]: 31 nM
- apparent KD of MS2 coat protein [3]: 26.7 nM
- apparent KD of MS2 coat protein [4]: 28.9 nM

Sequence: AAGAAACAUGAGGAUCACCCAUGUGAGGAUAUGGCCCGCCCGGCGUGAGCUGGUUUUGUCAGAAGGCACAAAGG [salish99_ex1_r4_017] (Eterna round: R97, puzzle: Exclusion 1)
- apparent KD of MS2 coat protein (input ligand: FMN 200 uM): 104 nM
- apparent KD of MS2 coat protein (input ligand: none): 41.9 nM

Sequence: AAGAAACAUGAGGAUCACCCAUGUGAGGAUAUGGCCCGCCCGGCGUGAGCUGGUUUUGUCAGAAGGCGCAAAGG [salish99_ex1_r4_018] (Eterna round: R97, puzzle: Exclusion 1)
- apparent KD of MS2 coat protein (input ligand: FMN 200 uM): 53.9 nM
- apparent KD of MS2 coat protein (input ligand: none): 50.8 nM

Sequence: AAGAAGGCAGGAUAUACAAAAUAAAAGAAAAGAAAGAAAGAACAUGAGGAUCACCCAUGUAGAAGGGUCAAGAA [Sankhenre Sewadjtu] (Eterna round: R96, puzzle: Exclusion 2)
- apparent KD of MS2 coat protein (input ligand: FMN 200 uM): 52.2 nM
- apparent KD of MS2 coat protein [1]: 46.3 nM
- apparent KD of MS2 coat protein (input ligand: none): 60.7 nM

Sequence: AAGAAGGCCGUAGGAUAUACAGCAAGAACGCGAGUAGAAGGACGAUACAUGAGGAUCACCCAUGUACGUGGGUAGUGCUCGUGC [Soatceri] (Eterna round: R96, puzzle: Exclusion NG 1)
- apparent KD of MS2 coat protein (input ligand: FMN 200 uM): 26 nM
- apparent KD of MS2 coat protein [1]: 10.9 nM
- apparent KD of MS2 coat protein (input ligand: none): 21.8 nM

Sequence: AAGACACAUGAGGAUCACCCAUGUGAGGAUAUUCGAUGCUGAGCGUAAGCUUAGUAUCGGAGAAGGCACAUAGG [Salishxclusion 8 - Jieux - Exclusion 1] (Eterna round: R97, puzzle: Exclusion 1)
- apparent KD of MS2 coat protein (input ligand: FMN 200 uM): 203 nM
- apparent KD of MS2 coat protein (input ligand: none): 251 nM

Sequence: AAGACACAUGAGGAUCACCCAUGUGAGGAUAUUUGAUGCUGAGCGUAAGCUUAGUAUCAGAGAAGGUACAUAGG [Salishxclusion 10 - Jieux - Exclusion 1] (Eterna round: R97, puzzle: Exclusion 1)
- apparent KD of MS2 coat protein (input ligand: FMN 200 uM): 105 nM
- apparent KD of MS2 coat protein (input ligand: none): 58.9 nM

Sequence: AAGACCAGAGGAUAUCAGACGCGGCACAUGAGGAUCACCCAUGUAUUCCCGUCUGCCGACUGAGAAGGUUGGAAAG [Xeusbi] (puzzle: Exclusion 5)
- apparent KD of MS2 coat protein [3]: 9.41 nM

Sequence: AAGAGGUCAGGAUAUACGGAGAGAGGGAGUUGGUUAGGGUAACAUGAGGAUCACCCAUGUAGAAGGGACUAAGA [JR_Exclu2_Sub079] (puzzle: Exclusion 2)
- apparent KD of MS2 coat protein [2]: 23.4 nM
- apparent KD of MS2 coat protein [3]: 23.1 nM
- apparent KD of MS2 coat protein [4]: 25.1 nM

Sequence: AAGCGCGUAGGAUAUACAUGAGGAUCACCCAUGUGAGGAGGGAGUUGGAGGUGUGGAAGUAGAAGGACGGAGUG [JR_Exclu3_Sub079] (puzzle: Exclusion 3)
- apparent KD of MS2 coat protein [3]: 26.9 nM

Sequence: AAGGACUGAGGAUAUGCGCGGGCAAGAUCCUCAAUCCCAAAACAUGAGGAUCACCCAUGUAGAAGGCAGAAAUA [Tereenrion] (puzzle: Exclusion 2)
- apparent KD of MS2 coat protein [3]: 23.4 nM

Sequence: AAGUACCGUCACGAUAGUGAUGGUACAACAAGCAAAUGUACAUGAGGAUCACCCAUGUCCUCUUUUGCUCGUCUUGU [Sensor 3 - 100] (puzzle: Sensor v3, turn-off variant 2)
- apparent KD of MS2 coat protein [2]: 155 nM
- apparent KD of MS2 coat protein [3]: 30.2 nM

Sequence: AAGUACUACAAGCUUUGGGACAUGAGGAUCACCCAUGUUCGUCUUAUUGAUCUAGGUACGCUGACGUACCUAGAUCU [Mat - Sensor v3 - turn-off var 1 - JL Mod - D8] (puzzle: Sensor v3, turn-off variant 1)
- apparent KD of MS2 coat protein [2]: 16.5 nM
- apparent KD of MS2 coat protein [3]: 73.4 nM
- apparent KD of MS2 coat protein [4]: 13.2 nM

Sequence: AAGUAUAGAGGAUAUAGUGAGUACUACAUGAGGAUCACCCAUGUUCUUCGUUACGUAUUUCUAGAAGGCUGAUAAA [EX-5 Malc#23] (puzzle: Exclusion 5)
- apparent KD of MS2 coat protein [3]: 106 nM

Sequence: AAUAAACAUGAGGAUCACCCAUGUGAGGAUAUACAAAUAAAUAAAUAAAUAAAUAAUAGUAGAAGGCACAAUAA [Excls1-II] (puzzle: Exclusion 1)
- apparent KD of MS2 coat protein [2]: 35.9 nM
- apparent KD of MS2 coat protein [3]: 35.3 nM
- apparent KD of MS2 coat protein [4]: 44 nM

Sequence: AAUAACAAGCAGGUCCUAAACAUGAGGAUCACCCAUGUGCUCGUCUUGUAAAGUACUAUCACGAAAGUGAUAGUACA [Sensor 3, v1 - 60] (puzzle: Sensor v3, turn-off variant 1)
- apparent KD of MS2 coat protein [2]: 26.8 nM
- apparent KD of MS2 coat protein [3]: 297 nM
- apparent KD of MS2 coat protein [4]: 28.3 nM

Sequence: AAUAACAAGCCGAUCCUCCACAUGAGGAUCACCCAUGUGCUCGUCUUGUAAAGUACUAUCACGAAAGUGAUAGUACA (Eterna round: R97, puzzle: Sensor, turn-off variant 1)
- apparent KD of MS2 coat protein (input ligand: FMN 200 uM): 39.2 nM
- apparent KD of MS2 coat protein (input ligand: none): 44 nM

Sequence: AAUAACAAGCUGAUCCUGCACAUGAGGAUCACCCAUGUGCUCGUCUUGUAAAGUACUAUCACGAAAGUGAUAGUACA (Eterna round: R97, puzzle: Sensor, turn-off variant 1)
- apparent KD of MS2 coat protein (input ligand: FMN 200 uM): 16.3 nM
- apparent KD of MS2 coat protein (input ligand: none): 21.2 nM

Sequence: AAUAACAGAGGAUAUACUAUUUUAUGUGUUUAUUGUUUUGAACAUGAGGAUCACCCAUGUAGAAGGCUGAGUAA [JMF 38] (puzzle: Exclusion 2)
- apparent KD of MS2 coat protein [3]: 27.5 nM

Sequence: AAUAACAGAGGAUAUACUAUUUUAUGUGUUUGUUAUUUUGAACAUGAGGAUCACCCAUGUAGAAGGCUGAAUAA [JMF 22] (puzzle: Exclusion 2)
- apparent KD of MS2 coat protein [3]: 21.7 nM

Sequence: AAUAACAGAGGAUAUACUAUUUUAUGUGUUUGUUGUUUUGAACAUGAGGAUCACCCAUGUAGAAGGCUGAAUGA [JMF 69] (puzzle: Exclusion 2)
- apparent KD of MS2 coat protein [3]: 25.3 nM

Sequence: AAUAACAGAGGAUAUACUAUUUUAUGUGUUUGUUGUUUUGAACAUGAGGAUCACCCAUGUAGAAGGCUGAUUAA [JMF 52] (puzzle: Exclusion 2)
- apparent KD of MS2 coat protein [3]: 34.3 nM

Sequence: AAUAACAGAGGAUAUACUAUUUUAUGUGUUUGUUGUUUUGAACAUGAGGAUCACCCAUGUAGAAGGCUGAUUGA [JMF 80] (puzzle: Exclusion 2)
- apparent KD of MS2 coat protein [3]: 39.6 nM

Sequence: AAUAACUCAGUGAGGAUAUUUGCGGGUGUUUUCGCAAAGAAGGCACAUGAGGAUCACCCAUGUCAGAGGAGCUA [Eternabot (Original) Solution 24] (Eterna round: R97, puzzle: Brourd's mod of Exclusion 4)
- apparent KD of MS2 coat protein (input ligand: FMN 200 uM): 214 nM
- apparent KD of MS2 coat protein (input ligand: none): 120 nM

Sequence: AAUAAGCGAGGAUAUGCGGGCGGGUGCGGCCAGCCGAUGUGACAUGAGGAUCACCCAUGUAGAAGGCGCAAUAA [Excls2-VI] (puzzle: Exclusion 2)
- apparent KD of MS2 coat protein [2]: 15.9 nM
- apparent KD of MS2 coat protein [3]: 11.4 nM
- apparent KD of MS2 coat protein [4]: 10.7 nM

— the supplement of paper PMC9170038
